We go through five molecules from patent US20210221908A1 (LAMKAP BIO BETA, published 2021).

Test [1] addresses T1, human CEACAM5 on MKN-45 cells (human, UniProt P06731 35-685).
T1 construct: endogenous CEA of MKN-45 gastric adenocarcinoma cells, which also carry CD47 and CEACAM6; UniProtKB P06731; also called CD66e
T1 sequence: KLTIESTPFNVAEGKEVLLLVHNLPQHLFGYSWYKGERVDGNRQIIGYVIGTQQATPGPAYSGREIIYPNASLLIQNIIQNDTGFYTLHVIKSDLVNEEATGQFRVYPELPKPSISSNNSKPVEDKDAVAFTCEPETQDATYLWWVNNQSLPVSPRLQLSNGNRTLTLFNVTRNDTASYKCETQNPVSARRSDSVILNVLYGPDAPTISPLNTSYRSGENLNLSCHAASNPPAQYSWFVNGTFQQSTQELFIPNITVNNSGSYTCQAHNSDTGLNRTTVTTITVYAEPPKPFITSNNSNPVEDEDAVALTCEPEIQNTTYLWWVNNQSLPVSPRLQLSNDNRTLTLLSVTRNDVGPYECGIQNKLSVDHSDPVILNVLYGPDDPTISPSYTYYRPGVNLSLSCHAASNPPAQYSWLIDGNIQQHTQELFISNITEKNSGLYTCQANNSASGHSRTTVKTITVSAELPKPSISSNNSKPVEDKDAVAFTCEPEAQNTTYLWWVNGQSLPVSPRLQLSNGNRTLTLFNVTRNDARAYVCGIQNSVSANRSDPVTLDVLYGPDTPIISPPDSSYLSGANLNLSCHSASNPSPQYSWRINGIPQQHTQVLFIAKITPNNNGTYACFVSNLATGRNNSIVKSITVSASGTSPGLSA
Briefly: flow cytometry on MKN45 CEA+ cancer cells (also carry CD47). On the procedure:
(§1) Cells are harvested, counted, checked for viability and resuspended at 3×10⁶ cells/ml in FACS buffer (PBS 2% BSA, 0.1% NaN3). 100 μl of the cell suspension are distributed in V-bottom 96-well plates (3×10⁵ cells/well). The supernatant is removed by centrifugation 3 minutes at 4° C., 1300 rpm. Increasing concentrations of the antibody according to the invention are then added into the wells and incubated for 15 minutes at 4° C. Cells are washed twice with cold FACS buffer and re-incubated for further 15 minutes at 4° C. with the PE (R-phycoerythrin)-conjugated mouse anti-human IgG Fc secondary antibody (SouthernBiotech, pre-diluted 1:100 in FACS buffer). Cells are washed twice with cold FACS buffer and resuspended in 300 μl FACS buffer with 1:15000-diluted SytoxBlue (Life Technologies). Fluorescence is measured using a Cytoflex […]. Binding curves and EC50 values are obtained and calculated using GraphPad Prism? software. In the same manner binding of MAB CEA or MAB CEA1 to MKN-45 cells can be tested.

In test [2] the target is T2, human CD47 on MKN45 cells (human, UniProt Q08722 19-323).
T2 construct: whole, on cells; also called IAP
Briefly: inhibition of SIRPα-mouseFc binding to CD47 on MKN45 cells, imaging (CX5); column 'SIRPα inhibition potency'. An excerpt:
Experimental set-up for the measurement of the SIRPα inhibition potency data shown for bispecific antibodies of this invention (results see table 2):
The detection of bound SIRPα cell-based assay monitoring the interaction of soluble SIRPα with human CD47 expressed at the surface of MKN45 is used for the detection of the blocking activity. Dose-response experiments with bispecific antibodies according to the invention allow determination of an IC50 value.
MKN45 cancer cells, expressing both CD47 and CEACAM5, are stained with CFSE violet to allow the imaging system (CX5) to detect the cells. Briefly, 3,000 stained MKN45 cells per well are seeded in a 384 optical well plate (Costar) and incubated for 50 minutes with increased concentrations of bispecific antibodies of the invention (1.9 pM to 333 nM, in quadruplicates). Then, a fixe concentration of SIRPα—mouseFc premixed with anti-mouse IgG-Fc AF647 coupled antibody (Jackson Immunoresearch diluted 1:2000) is added at 50 ng/mL final. After an incubation of 3H30 plates are acquired with the imaging system (CX5, Thermofisher) and fluorescence signals emitted by the detected bound SIRPα is recorded by the software dedicated to the imaging system. Fluorescence signals are plotted according to the dose range tested and IC50 are calculated by the software (Prism, Graphpad).

Test [3] concerns the target T3, commercial shed CEA (BioRad) (human, UniProt P06731 35-685, limits assumed).
T3 sequence: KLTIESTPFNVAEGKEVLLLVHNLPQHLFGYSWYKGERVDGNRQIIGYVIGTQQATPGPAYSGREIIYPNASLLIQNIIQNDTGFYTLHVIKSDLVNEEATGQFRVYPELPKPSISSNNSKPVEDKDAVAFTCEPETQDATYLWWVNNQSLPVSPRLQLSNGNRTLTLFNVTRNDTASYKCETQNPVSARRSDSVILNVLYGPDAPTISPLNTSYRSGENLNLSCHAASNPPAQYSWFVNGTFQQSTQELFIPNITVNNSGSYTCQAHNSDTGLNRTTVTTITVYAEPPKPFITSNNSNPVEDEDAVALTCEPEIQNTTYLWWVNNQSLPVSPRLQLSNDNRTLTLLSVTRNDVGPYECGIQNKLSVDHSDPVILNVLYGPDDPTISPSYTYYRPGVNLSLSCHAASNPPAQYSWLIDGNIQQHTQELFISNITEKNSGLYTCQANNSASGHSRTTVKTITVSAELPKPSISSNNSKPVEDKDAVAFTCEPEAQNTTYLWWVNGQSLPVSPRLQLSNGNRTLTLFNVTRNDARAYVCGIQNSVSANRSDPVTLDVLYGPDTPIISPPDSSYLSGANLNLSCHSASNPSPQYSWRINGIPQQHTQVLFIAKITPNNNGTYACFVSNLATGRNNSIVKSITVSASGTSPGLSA
Briefly: cell-based or functional assay.

Test [4] has as its target T1, human CEACAM5 on MKN-45 cells. Briefly: flow cytometry (FACS) on MKN-45 cells, without shed CEA.
Test [5] has the same target. Briefly: flow cytometry on MKN45 CEA+ cancer cells (also carry CD47); MKN45 CEA+ cancer cells. As to the method: as §1
(In flow cytometry, cells or beads pass a laser one at a time.)

Test [6] has as its target T4, human CEACAM6 on MKN-45 cells (human, UniProt P40199 35-320).
T4 construct: whole, on cells
T4 sequence (looked up): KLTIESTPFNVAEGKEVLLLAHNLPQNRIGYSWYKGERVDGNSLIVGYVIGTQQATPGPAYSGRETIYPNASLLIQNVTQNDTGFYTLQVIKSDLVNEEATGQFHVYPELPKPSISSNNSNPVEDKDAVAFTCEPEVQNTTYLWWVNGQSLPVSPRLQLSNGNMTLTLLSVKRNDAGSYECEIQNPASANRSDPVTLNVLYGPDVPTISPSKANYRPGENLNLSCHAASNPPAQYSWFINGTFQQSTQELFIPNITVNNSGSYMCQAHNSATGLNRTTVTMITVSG
The test can be described thus: statement in the legend of FIG. 21A (FACS on MKN-45 cells). On the procedure: Binding to target cells (MKN-45) expressing CD47, CEACAM5 and CEACAM6 was assessed by FACS.
as §1

Test [7] addresses T1, human CEACAM5 on MKN-45 cells. Briefly: flow cytometry (FACS) on MKN-45 cells, which express CD47, CEACAM5 and CEACAM6.

B1: K2AC18 CEAxCD47 bispecific antibody (bispecific antibody, human IgG1, kappa, lambda)
heavy: not shown
light 1: not shown
light 2: SYVLTQPPSVSVAPGKTARITCGGNGIGDASVHWYQQKPGQAPVLVIYSTTTRPSGIPERFSGSNSGNTATLTISRVEAGDEADYYCQVWDGFGPRHRAVFGGGTKLTVLGQPKAAPSVTLFPPSSEELQANKATLVCLISDFYPGAVTVAWKADSSPVKAGVETTTPSKQSNNKYAASSYLSLTPEQWKSHRSYSCQVTHEGSTVEKTVAPTECS
notes: kappa-lambda body, human IgG1, common heavy chain; CEA arm light chain 1A2 (AC18)
As for B1, the midpoint of the response in test [1], the EC50, lay at 132 nM. The half-inhibitory concentration (IC50) (in general, the concentration at which inhibition is half-maximal) in test [2] came out at 7 nM.

B2: K2AC25 CEAxCD47 bispecific antibody (bispecific antibody, human IgG1, kappa, lambda)
heavy: not shown
light 1: not shown
light 2: QSVLTQPPSVSAAPGQKVTISCSGSSSNIGITPVSWYQQLPGTAPKLLIYSNNFRPSGIPDRFSGSKSGTSATLGITGLQTGDEADYYCGTWDRTGHEIRPVFGGGTKLTVLGQPKAAPSVTLFPPSSEELQANKATLVCLISDFYPGAVTVAWKADSSPVKAGVETTTPSKQSNNKYAASSYLSLTPEQWKSHRSYSCQVTHEGSTVEKTVAPTECS
notes: kappa-lambda body, human IgG1, common heavy chain; CEA arm light chain 2F4 (AC25)
On to B2, for which the EC50 (in general, the concentration needed to bring the measured effect to its halfway point) in test [1] was 13 nM. In test [2], this molecule came in with an IC50 of 0.22 nM.

B3: K2AC13 CEAxCD47 bispecific antibody (bispecific antibody, human IgG1, kappa, lambda)
heavy: not shown
light 1: not shown
light 2: QSALTQPASVSGSPGQSITISCTGTSSNVRYAAGVSWYQQHPGKAPKLMIYEVSNRPSGVSNRFSGSKSGNTASLTISGLQAEDEADYYCSSWDFEHGPAAKVFGGGTKLTVLGQPKAAPSVTLFPPSSEELQANKATLVCLISDFYPGAVTVAWKADSSPVKAGVETTTPSKQSNNKYAASSYLSLTPEQWKSHRSYSCQVTHEGSTVEKTVAPTECS
notes: kappa-lambda body, human IgG1, common heavy chain; CEA arm light chain 2B8 (AC13)
In test [1], B3 had a half-maximal effective concentration (EC50) of 190 nM. The same molecule had an IC50 in test [2] of 4 nM.

B4: K2AC5 CEAxCD47 bispecific antibody (bispecific antibody, human IgG1, kappa, lambda)
heavy: not shown
light 1: not shown
light 2: QSVLTQPPSVSAAPGQKVTISCSGSSSNIGYGLVSWYQQLPGTAPKLLIYAGNLRPSGIPDRFSGSKSGTSATLGITGLQTGDEADYYCGTWDFNYGVVFGGGTKLTVLGQPKAAPSVTLFPPSSEELQANKATLVCLISDFYPGAVTVAWKADSSPVKAGVETTTPSKQSNNKYAASSYLSLTPEQWKSHRSYSCQVTHEGSTVEKTVAPTECS
notes: kappa-lambda body, human IgG1, common heavy chain; CD47 arm light chain KA3 (K2), CEA arm light chain 1D9 (AC5)
In the case of B4, in test [3], the “shift of EC50 of the phagocytosis index curve of MKN-45 cells by 200 ng/mL shed CEA (FIG. 20B)” value was less than 4 fold. Also, the EC50 (read off the curve) (as a rule, the concentration giving half of the maximal effect) in test [4] was approximately 0.3 µg/mL. In test [5], this molecule came in with an EC50 of 11.3 nM. Also, the IC50 in test [2] worked out at 0.4 nM.

B5: K2AC22 CEAxCD47 bispecific antibody (bispecific antibody, human IgG1, kappa, lambda)
heavy: not shown
light 1: not shown
light 2: QSVLTQPPSVSAAPGQKVTISCSGSSSNIANGIVSWYQQLPGTAPKLLIYFDNLRPSGIPDRFSGSKSGTSATLGITGLQTGDEADYYCGTWDFSYGIVFGGGTKLTVLGQPKAAPSVTLFPPSSEELQANKATLVCLISDFYPGAVTVAWKADSSPVKAGVETTTPSKQSNNKYAASSYLSLTPEQWKSHRSYSCQVTHEGSTVEKTVAPTECS
notes: kappa-lambda body, human IgG1, common heavy chain; CEA arm light chain 1G6 (AC22)
In the case of B5, the “shift of EC50 of the phagocytosis index curve of MKN-45 cells by 200 ng/mL shed CEA (FIG. 20B)” value in test [3] was less than 4 fold. In test [6], the binding result is listed as “no binding”. Moreover, it took 16.5 nM to reach a half-maximal effect in test [1] (EC50). Moreover, the 50% effective concentration (EC50 (read off the curve)) in test [7] is approximately 1 µg/mL. The molecule also returned an IC50 in test [2] of 0.37 nM.
